Experimental data from patent CN107417789A.

Biological target: 移除了糖基化位点(Asn-38)的H7 HA(A/鸡/意大利/99假病毒) (influenza A virus A/chicken/Italy/99 (H7))
Experiment: cell-based or functional assay

Substance | H7假病毒中和 IC50
CR6261 (antibody) | > 50 mg/L
F10 (antibody) | > 50 mg/L
